In the Immune Epitope Database (IEDB) one finds Kd data, which are given here for 13 sequences.

The term Kd denotes a measure of binding affinity in units of concentration.

Test [1] concerns the target HLA-B*58:01. The experiment in a line: IEDB peptide-MHC binding, purified MHC/competitive/radioactivity; filed as Kd, often an IC50 or EC50 that approximates it; ≥ and ≤ were set here for values at or beyond the usual limits of such assays.
In another test the target is HLA-B*53:01. The description is as above.
In a further test the target is HLA-B*44:02. The test is described as above. To be noted: source organism: Dengue virus 3 Sri Lanka/1266/2000.
The target of the next test is HLA-B*44:03. The test is described as above. To be noted: source organism: Dengue virus 3 Sri Lanka/1266/2000.
Test [2] concerns the target HLA-B*57:01. The test is described as above.
The target of test [3] is HLA-A*26:01. Nature of the test: IEDB peptide-MHC binding, purified MHC/competitive/fluorescence; filed as Kd, often an IC50 or EC50 that approximates it; ≥ and ≤ were set here for values at or beyond the usual limits of such assays. The settings on record: source organism: Entamoeba dispar SAW760.
The target in a further test is HLA-A*68:02. Described as above. To be noted: source organism: Entamoeba dispar SAW760.
In test [4] the target is HLA-A*31:01. The test is described as above.
In test [5] the target is HLA-B*51:01. Described as above. To be noted: source organism: Entamoeba dispar SAW760.
A further test concerns the target HLA-B*39:01. Described as above. The settings on record: source organism: Entamoeba dispar SAW760.
Test [6] addresses HLA-A*69:01. The test is described as above. To be noted: source organism: Entamoeba dispar SAW760.
For the next test, the target named is HLA-A*02:03. The description is as above. To be noted: source organism: Entamoeba dispar SAW760.
The next test concerns the target HLA-A*02:12. Described as above. The settings on record: source organism: Entamoeba dispar SAW760.
The next test concerns the target HLA-A*23:01. Described as above.
For a further test, the target named is HLA-B*18:01. Described as above. The settings on record: source organism: Entamoeba dispar SAW760.
For test [7], the target named is HLA-B*15:01. The description is as above. To be noted: source organism: Entamoeba dispar SAW760.
A further test deals with HLA-B*15:17. The test is described as above. The settings on record: source organism: Entamoeba dispar SAW760.
The target in test [8] is HLA-B*57:01. Described as above. The settings on record: source organism: Entamoeba dispar SAW760.
In test [9] the target is HLA-B*46:01. The test is described as above. To be noted: source organism: Entamoeba dispar SAW760.
The target in the next test is HLA-B*27:03. Described as above. To be noted: source organism: Entamoeba dispar SAW760.
In test [10] the target is HLA-A*24:03. The description is as above. The settings on record: source organism: Entamoeba dispar SAW760.
Another test deals with HLA-A*02:19. The description is as above. The settings on record: source organism: Entamoeba dispar SAW760.
Another test has as its target HLA-A*32:01. The experiment in a line: IEDB peptide-MHC binding, purified MHC/competitive/radioactivity; filed as Kd, often an IC50 or EC50 that approximates it; ≥ and ≤ were set here for values at or beyond the usual limits of such assays. The settings on record: source organism: Dengue virus 1 Brazil/97-11/1997.
For test [11], the target named is HLA-B*51:01. The description is as above. The settings on record: source organism: Dengue virus 3 Martinique/1243/1999.
Test [12] deals with HLA-A*01:01. Described as above. The settings on record: source organism: Dengue virus 3 Martinique/1243/1999.
Test [13] addresses HLA-B*15:01. Nature of the test: IEDB peptide-MHC binding, purified MHC/direct/fluorescence; filed as Kd, often an IC50 or EC50 that approximates it; ≥ and ≤ were set here for values at or beyond the usual limits of such assays.
In test [14] the target is HLA-B*46:01. Described as above. To be noted: source organism: Yellow fever virus.
The target in another test is HLA-A*11:01. Described as above.
Another test addresses HLA-A*30:01. The description is as above. The settings on record: source organism: Escherichia coli.
The target of test [15] is HLA-A*26:01. Described as above. The settings on record: source organism: Escherichia coli.
The next test deals with HLA-A*02:01. The test is described as above. The settings on record: source organism: Escherichia coli.
In test [16] the target is HLA-A*31:01. The test is described as above. To be noted: source organism: Escherichia coli.
For test [17], the target named is HLA-A*69:01. The test is described as above. The settings on record: source organism: Escherichia coli.
Test [18] addresses HLA-B*58:01. Described as above. To be noted: source organism: Escherichia coli.
For test [19], the target named is HLA-A*03:01. The test is described as above.
Test [20] addresses HLA-A*01:01. The test is described as above. The settings on record: source organism: Escherichia coli.
A further test concerns the target HLA-B*40:01. The test is described as above. To be noted: source organism: Escherichia coli.
A further test addresses HLA-B*27:05. Described as above. To be noted: source organism: Escherichia coli.
The next test has as its target HLA-B*08:01. The test is described as above. To be noted: source organism: Escherichia coli.
Test [21] addresses HLA-A*24:03. The test is described as above. The settings on record: source organism: Escherichia coli.
For test [22], the target named is HLA-A*03:01. The experiment in a line: IEDB peptide-MHC binding, purified MHC/competitive/fluorescence; filed as Kd, often an IC50 or EC50 that approximates it; ≥ and ≤ were set here for values at or beyond the usual limits of such assays. The settings on record: source organism: Escherichia coli E22.
[23] abbreviates: source organism: Dengue virus 3 Sri Lanka/1266/2000.
The mark [24] stands for this setting: source organism: Dengue virus 4 Philippines/H241/1956.
The mark [25] stands for this setting: source organism: Entamoeba dispar SAW760.
Where [26] appears, read: source organism: Dengue virus 1 Brazil/97-11/1997.
The mark [27] stands for this setting: source organism: Dengue virus 3 Martinique/1243/1999.
The mark [28] stands for this setting: source organism: Yellow fever virus.
Setting [29] is: source organism: Escherichia coli.
The mark [30] stands for this setting: source organism: Dengue virus 2 Jamaica/1409/1983.
Setting [31] is: source organism: Mammarenavirus juninense.
The mark [32] stands for this setting: source organism: West Nile virus.

A value given as a limit tells only on which side of the number the result lay.

As for MEITAEWLW, the Kd in the test with HLA-B*58:01 [1] (setting [23]) stood at 5.39 nM; with HLA-B*53:01 (setting [23]), 32.1 nM; in the test with HLA-B*44:02, 4.63 nM; with HLA-B*44:03, 9.15 nM.

For the sequence EASISNITTA, the Kd with HLA-B*58:01 [1] (setting [24]) was 1630 nM; with HLA-B*57:01 [2] (setting [24]) it was ≥ 23500 nM.

For LMTHTWHAK, the Kd with HLA-A*26:01 [3] was ≥ 20000 nM; with HLA-A*68:02, ≥ 20000 nM; in the test with HLA-A*31:01 [4] (setting [25]) it was 119 nM; in the test with HLA-B*51:01 [5], ≥ 20000 nM; with HLA-B*39:01, ≥ 20000 nM; with HLA-A*69:01 [6], ≥ 20000 nM. The Kd in the test with HLA-A*02:03, with HLA-A*02:12, with HLA-A*23:01 (setting [25]), with HLA-B*18:01, with HLA-B*15:01 [7] and with HLA-B*15:17 was ≥ 20000 nM throughout. In addition, the Kd with HLA-B*57:01 [8], with HLA-B*46:01 [9], in the test with HLA-B*27:03, in the test with HLA-A*24:03 [10] and with HLA-A*02:19 was ≥ 20000 nM throughout.

For the sequence RSWNSGYDW, the Kd with HLA-A*32:01 is 54.3 nM; with HLA-B*58:01 [1] (setting [26]), 13.5 nM; with HLA-B*57:01 [2] (setting [26]) it was ≤ 1 nM.

Sequence MQLAKEHNF registered a Kd in the test with HLA-A*23:01 (source organism: Francisella tularensis subsp. tularensis FSC198) of 29.1 nM.

On to LTAAVLLLI, for which the Kd is 647 nM in the test with HLA-B*51:01 [11], 11.3 nM in the test with HLA-B*58:01 [1] (setting [27]) and ≥ 78100 nM with HLA-A*01:01 [12].

RSHAAIGAY: the Kd was ≥ 20000 nM with HLA-A*31:01 [4] (setting [28]), 87 nM in the test with HLA-B*15:01 [13] (setting [28]), ≥ 20000 nM in the test with HLA-B*46:01 [14] and ≥ 20000 nM with HLA-A*11:01 (setting [28]).

On to LATAIAGAW, for which the Kd in the test with HLA-B*58:01 [1] (setting [27]) worked out at 5.6 nM; in the test with HLA-B*53:01 (setting [27]) it was 19.9 nM; with HLA-B*57:01 [2] (setting [27]) it was 7.19 nM.

As for NMERKLNLS, the Kd with HLA-A*30:01, with HLA-A*26:01 [15], with HLA-A*02:01, with HLA-A*31:01 [16], with HLA-A*69:01 [17] and in the test with HLA-B*58:01 [18] was ≥ 20000 nM throughout. The Kd with HLA-B*15:01 [13] (setting [29]), in the test with HLA-A*03:01 [19] (setting [29]), in the test with HLA-A*01:01 [20], with HLA-B*40:01, in the test with HLA-A*11:01 (setting [29]) and with HLA-B*27:05 was ≥ 20000 nM each time. The Kd with HLA-B*08:01 and with HLA-A*24:03 [21] was ≥ 20000 nM in each case.

As to RSWNSGHEW, the Kd with HLA-B*58:01 [1] (setting [30]) is 1.05 nM; with HLA-B*57:01 [2] (setting [30]), 2.05 nM.

In the case of KLFDLHGRR, the Kd was 11.1 nM in the test with HLA-A*31:01 [4] (setting [31]) and 241 nM with HLA-A*03:01 [19] (setting [31]).

For KVLCPYMPK, the equilibrium dissociation constant (Kd) with HLA-A*31:01 [4] (source organism: Japanese encephalitis virus) came to 60.5 nM; with HLA-A*03:01 [19] (setting [32]) it was 562 nM; in the test with HLA-A*11:01 (setting [32]), 3.7 nM.

Regarding MFIIKYFKK, the dissociation constant Kd in the test with HLA-A*31:01 [4] (source organism: Escherichia coli E22) is 246 nM; with HLA-A*03:01 [22] it was ≥ 20000 nM.
